Results on 2 molecules are retold here after doi:10.1101/2023.01.25.525508.

Data set [1] addresses T1, TIA1 full-length (fl TIA1) (Mus musculus, UniProt P52912 1-386).
T1 sequence: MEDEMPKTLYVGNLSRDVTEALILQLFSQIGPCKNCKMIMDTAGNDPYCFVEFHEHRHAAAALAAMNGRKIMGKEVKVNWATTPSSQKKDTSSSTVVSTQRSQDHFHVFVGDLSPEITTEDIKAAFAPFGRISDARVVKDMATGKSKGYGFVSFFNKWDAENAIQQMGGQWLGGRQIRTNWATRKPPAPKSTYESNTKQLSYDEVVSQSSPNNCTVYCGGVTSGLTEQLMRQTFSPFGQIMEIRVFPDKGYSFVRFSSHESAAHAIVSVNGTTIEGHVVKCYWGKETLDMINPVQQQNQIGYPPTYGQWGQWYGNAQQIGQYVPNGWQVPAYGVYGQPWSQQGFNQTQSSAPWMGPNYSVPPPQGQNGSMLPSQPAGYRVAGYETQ
As to the kind of experiment: ITC. For orientation: Isothermal titration calorimetry measures the heat released or taken up as one component is titrated into another.

Data set [2] addresses T1, TIA1 full-length (fl TIA1). As to the kind of experiment: solid-state NMR.

The term Kd denotes the constant that tells how readily two partners part at equilibrium. A low value points to a tighter complex. For TTTTTACTCC (ssDNA) [TC1], in data set [1], binding was characterised by a dissociation constant (Kd) of 0.263 ± 0.06 µM.

Regarding TTTTTACTCCAAAAAAAATTTTTACTCCAAAAAAAATTTTTACTCC (ssDNA) [(TC1-A8)2-TC1], the binding result in data set [2] is listed as “binds”.
